Source: US20220281965A1 (AstraZeneca / MedImmune, published 2022)
Where a chain is given by its changes, count along the chain named.

What was measured:
[1] = biological target: T1, mature human GDF-15 (human, UniProt Q99988 197-308); experiment: HTRF epitope competition; competitor DyLight 650 labelled Antibody A; Europium labelled human GDF-15
T1 construct: Homodimer; also called hGDF-15; recombinant hu-GDF15
T1 sequence: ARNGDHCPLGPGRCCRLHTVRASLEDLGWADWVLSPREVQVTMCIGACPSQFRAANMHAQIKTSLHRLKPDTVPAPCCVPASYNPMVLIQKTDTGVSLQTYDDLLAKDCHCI
Description: Antibodies from the immunizations with human GDF-15, in the form of crude supernatants from the immunization or in the form of purified IgGs, were chosen on the basis that they bind and compete with an epitope recognized by a control anti-GDF-15 antibody “Antibody A”. A biochemical epitope competition format was applied using an HTRF epitope competition assay that measured the binding of DyLight 650 labelled Antibody A to Europium labelled human GDF-15 (Prospec). In the absence of Antibody A binding, there is no detectable FRET fluorescence. When Antibody A binds to GDF-15, the resulting physical proximity between the secondary reagent donor/acceptor pair results in FRET. Competition with an antibody that recognizes the same or similar epitope will result in a dose dependent reduction of the FRET signal. FRET was measured ratiometrically [665 nm (acceptor)/620 nm (donor)] on an Envision plate reader, and IC₅₀ values were determined by curve fitting the data to a four parameter logistic equation using PRISM 6® software (Graphpad).

[2] = biological target: T2, human BMP7 (R&D Systems 354-BP/CF) (human, UniProt P18075 293-431); experiment: antigen presentation ELISA: human BMP7 adsorbed on a Nunc Maxisorp plate, titration of IgG, anti-human IgG-HRP, TMB, absorbance at 450 nm
T2 construct: Bought protein, adsorbed on the ELISA plate
T2 sequence (looked up): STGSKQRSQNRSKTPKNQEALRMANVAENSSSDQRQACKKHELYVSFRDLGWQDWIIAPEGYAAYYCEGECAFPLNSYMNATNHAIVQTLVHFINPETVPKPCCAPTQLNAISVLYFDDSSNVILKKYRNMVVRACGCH
Method: (§1) Purified humanized IgGs were screened for binding to human GDF-15 over two further members of the same family, TGFβ1 (R&D Systems 240-B) and BMP7 (R&D Systems 354-BP/CF), using a standard antigen presentation ELISA. Human GDF-15, human TGFβ1 or human BMP7 were adsorbed onto a Nunc Maxisorp™ plate. After removal of excess unbound antigen, a titration of test IgG was added to the plate. After a 1-hour incubation, the unbound IgG was removed. The extent of IgG binding was determined by addition of an anti-human IgG antibody conjugated to the horseradish peroxidase (HRP) enzyme and measuring the optical absorbance at 450 nm of the product of its reaction with the substrate TMB.

[3] = biological target: T3, human TGFβ1 (R&D Systems 240-B) (human, UniProt P01137 279-390); experiment: antigen presentation ELISA: human TGFβ1 adsorbed on a Nunc Maxisorp plate, titration of IgG, anti-human IgG-HRP, TMB, absorbance at 450 nm
T3 construct: Bought protein, adsorbed on the ELISA plate
Method: as §1

[4] = biological target: T4, mouse GDF-15 (mouse, UniProt Q9Z0J7 189-303); experiment: HTRF binding assay, biotinylated mouse GDF-15
T4 construct: also called mGDF-15
T4 sequence: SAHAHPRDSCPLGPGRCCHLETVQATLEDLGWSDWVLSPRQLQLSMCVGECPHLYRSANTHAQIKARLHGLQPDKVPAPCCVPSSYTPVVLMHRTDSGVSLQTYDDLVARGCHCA
Description: (§2) Supernatants generated from the immunizations with human GDF-15 and purified IgGs were screened to identify IgGs with specific binding to human, cynomolgus, or mouse GDF-15. The HTRF (Homogeneous Time Resolved Fluorescence) assay is based on detection of a measurable FRET signal upon binding of a titration of test antibody to biotinylated human H202D GDF-15 variant, cynomolgus GDF-15 and mouse GDF-15. Europium cryptate (EuK) labelled Streptavidin and anti-human IgG XL665 (Cis Bio) were used as secondary detection reagents serving as energy donor and acceptor respectively. In the absence of test antibody binding, there is no detectable FRET fluorescence. When test antibody binds to GDF-15, the resulting physical proximity between the secondary reagent donor/acceptor pair results in FRET. FRET was measured ratiometrically [665 nm (acceptor)/620 nm (donor)] on an Envision plate reader, and data plotted using PRISM 6® software (Graphpad).

[5] = biological target: T5, biotinylated human H202D GDF-15 variant (human, UniProt Q99988 197-308, biotinylated, sites not stated); experiment: HTRF binding assay, biotinylated antigen, titration of antibody
T5 construct: also called Human GDF-15 H202D
T5 chain: T1 sequence with H6D
Description: as §2

[6] = biological target: T6, biotinylated cynomolgus GDF-15 (cynomolgus, UniProt G7PWZ3 197-308, biotinylated, sites not stated); experiment: as above
T6 construct: also called Cyno GDF-15
T6 sequence: T1 sequence with H6R, R21H, A54E, T63M, S64N, I112V
Description: as §2

T3 sequence (P01137 279-390 limits assumed): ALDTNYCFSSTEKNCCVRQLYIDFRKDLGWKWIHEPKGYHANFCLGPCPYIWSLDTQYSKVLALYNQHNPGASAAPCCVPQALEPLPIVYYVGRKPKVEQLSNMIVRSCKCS

B1: AB1170241 (antibody, IgG1, V domains shown)
VH: QVQLVQSGSELKKPGASVKVSCKASGYTFTDYNMDWIRQSPGKGLEWIGDINPNQGGTFYNQKFKDRATLTVDKSTSTAYMELRSLRSDDTAVYYCAREEKLYFGLMDYWGQGTTVTVSS
VL: DIQMTQSPSSLSASVGDRVTITCRASENIYSYLAWYQQKPGKAPKLLVYNAKTLAEGVPSRFSGSGSGIDFTLTISSLQPEDFATYYCQHQYGSPPTFGQGTKLEIK
notes: Humanized IgG1 TM; Made from AB1170243 by changing NNG to NQG in heavy chain CDR2; not shown: human immunoglobulin kappa light chain constant domain
What does the source list for B1?
IC50 [1]: 0.212 nM; binding result [2]: no binding (tested: 5 µg/mL); binding result [3]: no binding (tested: 5 µg/mL)

B2: AB1170243 (antibody, IgG1, V domains shown)
VH: B1 VH with Q55N
VL: B1 VL
notes: Humanized IgG1 TM; also called human anti-human GDF-15 IgG; not shown: human immunoglobulin kappa light chain constant domain
With B2 as the binder, how does the IC50 [1] read?
The IC50 was 0.155 nM.

Does B2 bind [2]?
Result: no binding (tested: 5 µg/mL)

Does B2 bind [3]?
Result: no binding (tested: 5 µg/mL)

B3: AB1170242 (antibody, IgG1, V domains shown)
VH: QVQLQESGPGLLKPSQTLSLTCTVSGFSLSTYGMGVGWIRQPAGKGLEWLANIWWNDDKYYNSALKSRLTISKDTSKNQVSLKLSSVTAADTAVYYCAQEVYGWFAYWGQGTLVTVSS
VL: DIQMTQSPSTLSASVGDRVTITCKASQNVGTNVAWYQQKPGQPPKALIYSASYRYSGVPDRFSGSGSGTDFTLTISSLQAEDVAVYYCQQYNSYPLTFGQGTKLEIK
notes: Humanized IgG1 TM; not shown: human immunoglobulin kappa light chain constant domain
How did the IC50 [1] turn out when B3 was run?
The IC50 was 0.288 nM.

Does B3 bind [2]?
Result: no binding (tested: 5 µg/mL)

Does B3 bind [3]?
Result: no binding (tested: 5 µg/mL)

B4: AB1170249 (antibody, IgG1, V domains shown)
VH: B3 VH with A43L, E100M, V101A, G103S
VL: B3 VL with T10F, V29M, G30D, L96F
notes: as for B3
What does the source list for B4?
IC50 [1]: 0.406 nM; binding result [2]: no binding (tested: 5 µg/mL); binding result [3]: no binding (tested: 5 µg/mL)

B5: AB1170244 (antibody, IgG1, V domains shown)
VH: EVQLVESGGGLVKPGGSLRLSCAASGFTFSSYAMSWVRQAPGKGLEWVAYISSGGDNIYYADTVKGRFTISRDNSKNTLYLQMNSLKTEDTAVYYCTRALVENAYFDYWGQGTTVTVSS
VL: DSVLTQSPDSLAVSLGERATINCRASKSVSTSTYSYMHWYQQKPGQPPKLLIKYASYLESGVPDRFSGSGSGTDFTLKISRVEAEDVGVYYCQHSREFPWTFGGGTKVEIK
notes: as for B3
Which IC50 [1] does the source give for B5 here?
Its IC50 is 1.17 nM.

Does B5 bind [2]?
Result: no binding (tested: 5 µg/mL)

Does B5 bind [3]?
Result: no binding (tested: 5 µg/mL)

B6: AB1170245 (antibody, IgG1, V domains shown)
VH: B5 VH with N57Y, E102D
VL: DIVLTQSPDSLAVSLGERATINCRASKSVSTSSYSYMHWYQQKPGQPPKLLIKYASYLEFGVPSRFSGSGSGTDFTLTISSLQPEDVATYYCQHSREFPWTFGGGTKVEIK
notes: as for B3
How did the IC50 [1] turn out when B6 was run?
The IC50 was 2.23 nM.

Does B6 bind [2]?
Result: no binding (tested: 5 µg/mL)

Does B6 bind [3]?
Result: no binding (tested: 5 µg/mL)

B7: AB1170246 (antibody, IgG1, V domains shown)
VH: QVQLQESGPGLLKPSQTLSLTCTVSGFSLITSGLGVSWIRQPAGKGLEWLAHIYWDDDKRYNPSLKSRLTISKDTSKNQVSLKLSSVTAADTAVYYCARGGYDGYYDYWGQGTTVTVSS
VL: DVVMTQSPLSLPVTLGQPASISCRSSQSIVHSNGNTNLEWYLQKPGQSPQLLIYKVSNRLSGVPDRFSGSGSGTDFTLKISRVEAEDVGVYYCFQGSHVRTFGQGTKLEIK
notes: as for B3
How did the IC50 [1] turn out when B7 was run?
The IC50 was 4.99 nM.

Does B7 bind [2]?
Result: no binding (tested: 5 µg/mL)

Does B7 bind [3]?
Result: no binding (tested: 5 µg/mL)

B8: AB1170247 (antibody, IgG1, V domains shown)
VH: QVQLVQSGSELKKPGASVKVSCKASGYTFTSYDINWVRQAPGQGLEWIGWIYPRDGISKYNEKFKGRATLTVDTSASTAYMELSSLRSEDTAVYYCAGTYDPAYFDYWGQGTTVTVSS
VL: EIVLTQSPATLSVSPGERATLSCRASQSISYYLHWYQQKPGQAPRLLIKYASQSISGVPDRFSGSGSGTDFTLKISRVEAEDFGVYYCQQSNSWPYTFGGGTKVEIK
notes: as for B3
What does the source list for B8?
IC50 [1]: 11.3 nM; binding result [2]: no binding (tested: 5 µg/mL); binding result [3]: no binding (tested: 5 µg/mL)

B9: AB1170248 (antibody, IgG1, V domains shown)
VH: QVQLVQSGSELKKPGASVKVSCKASGYTFTDYNMDWVRQAPGKGLEWIGDINPYNGITIYNQKFKGRATLTVDKSTSTAYMELRSLRSDDTAVYYCAREEKLGTSFDYWGQGTTVTVSS
VL: B1 VL with Y32N, N50A, K52T, T53N, E56D, I69T, Q91F, S94T, P96W
notes: as for B3
How did the IC50 [1] turn out when B9 was run?
The IC50 was 1.58 nM.

Does B9 bind [2]?
Result: no binding (tested: 5 µg/mL)

Does B9 bind [3]?
Result: no binding (tested: 5 µg/mL)

B10: AB1170002 (antibody, V domains shown)
VH: QVTLKESGPGILQPSQTLSLTCSFSGFSLSTYGMGVGWIRQPSGKGLEWLANIWWNDDKYYNSALKSRLTISKDTSNNQVFLKISSVDTADTVTYYCAQVGYDWFAYWGQGTLVTVSS
VL: EIVLTQSPALMAASPGEKVTITCSVSSSISSSNLHWYQQKSETSPKPWIYGTSNLASGVPVRFSGSGSGTSYSLTISSMEAEDAATYYCQQCSSYPLTFGAGTKLELK
Which results are given for B10?
binding result [4]: no binding; binding result [5]: binds; binding result [6]: binds; IC50 [1]: 6.1 nM
